From US20240189392A1 (AMBRX, published 2024)

Legend:
Test in all cases: cell-based or functional assay
[1] = biological target: T1, human RXFP1 (human, UniProt Q9HBX9 1-757)
T1 sequence (looked up): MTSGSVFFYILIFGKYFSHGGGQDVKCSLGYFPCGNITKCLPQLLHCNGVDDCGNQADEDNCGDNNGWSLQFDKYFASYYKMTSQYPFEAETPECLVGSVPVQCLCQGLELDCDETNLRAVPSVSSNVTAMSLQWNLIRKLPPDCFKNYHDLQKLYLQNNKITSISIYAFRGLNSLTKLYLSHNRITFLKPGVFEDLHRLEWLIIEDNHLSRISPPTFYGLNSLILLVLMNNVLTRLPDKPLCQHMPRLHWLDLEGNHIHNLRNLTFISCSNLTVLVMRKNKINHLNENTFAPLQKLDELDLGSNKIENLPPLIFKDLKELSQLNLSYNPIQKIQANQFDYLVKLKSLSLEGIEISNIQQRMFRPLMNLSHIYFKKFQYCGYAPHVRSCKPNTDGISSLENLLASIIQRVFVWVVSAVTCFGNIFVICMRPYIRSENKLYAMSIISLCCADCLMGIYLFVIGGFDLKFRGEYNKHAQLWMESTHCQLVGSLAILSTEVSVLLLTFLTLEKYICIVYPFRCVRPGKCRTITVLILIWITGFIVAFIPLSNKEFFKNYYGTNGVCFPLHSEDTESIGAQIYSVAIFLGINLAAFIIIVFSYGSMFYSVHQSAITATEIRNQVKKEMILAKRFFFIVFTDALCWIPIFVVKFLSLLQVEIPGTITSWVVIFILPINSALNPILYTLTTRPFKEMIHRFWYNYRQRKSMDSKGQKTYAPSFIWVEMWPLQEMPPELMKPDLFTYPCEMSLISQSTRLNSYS

[2] = biological target: human RXFP4 (human, UniProt Q8TDU9 1-374)
Sequence of human RXFP4 (Q8TDU9 whole entry): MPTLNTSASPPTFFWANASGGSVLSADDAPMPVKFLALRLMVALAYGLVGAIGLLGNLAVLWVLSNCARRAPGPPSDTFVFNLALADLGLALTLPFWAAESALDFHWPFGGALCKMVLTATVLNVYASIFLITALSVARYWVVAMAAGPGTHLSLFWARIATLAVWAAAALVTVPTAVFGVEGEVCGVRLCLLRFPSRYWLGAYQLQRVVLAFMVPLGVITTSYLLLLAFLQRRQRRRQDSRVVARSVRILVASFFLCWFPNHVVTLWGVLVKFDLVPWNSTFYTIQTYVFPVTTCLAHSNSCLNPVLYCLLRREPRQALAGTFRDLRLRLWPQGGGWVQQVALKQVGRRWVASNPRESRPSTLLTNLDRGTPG

[3] = biological target: T2, rat RXFP1 (rat, UniProt Q6R6I6 1-758)
T2 sequence (looked up): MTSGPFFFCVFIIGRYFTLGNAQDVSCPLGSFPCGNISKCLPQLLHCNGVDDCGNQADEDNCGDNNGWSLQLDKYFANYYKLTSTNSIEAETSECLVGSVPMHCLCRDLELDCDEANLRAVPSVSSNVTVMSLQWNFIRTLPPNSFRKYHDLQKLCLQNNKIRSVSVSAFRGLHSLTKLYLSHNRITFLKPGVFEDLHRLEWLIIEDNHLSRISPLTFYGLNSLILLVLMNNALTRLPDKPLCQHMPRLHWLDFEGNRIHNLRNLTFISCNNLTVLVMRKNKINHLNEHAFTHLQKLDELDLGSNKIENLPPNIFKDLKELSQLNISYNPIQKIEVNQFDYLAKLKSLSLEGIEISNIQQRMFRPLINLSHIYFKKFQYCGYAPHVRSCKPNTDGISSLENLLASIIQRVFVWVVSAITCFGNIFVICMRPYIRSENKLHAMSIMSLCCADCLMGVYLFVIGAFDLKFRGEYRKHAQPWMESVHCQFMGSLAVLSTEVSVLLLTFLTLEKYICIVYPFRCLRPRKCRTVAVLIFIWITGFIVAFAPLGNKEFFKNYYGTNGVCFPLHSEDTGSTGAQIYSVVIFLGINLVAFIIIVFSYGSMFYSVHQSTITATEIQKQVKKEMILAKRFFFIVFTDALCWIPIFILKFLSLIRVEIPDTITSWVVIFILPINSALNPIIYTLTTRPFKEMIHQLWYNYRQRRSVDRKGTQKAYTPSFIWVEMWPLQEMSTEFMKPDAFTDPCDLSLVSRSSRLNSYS

B1: RLX-A-AQ1-20KPEG (ligand)
chain 1: XLYSALANKCCHVGCTKRSLARFC
chain 2: ASWMEEVIKLCGRELVRAQIAICGMSTWS
modifications: pACF (para-acetylphenylalanine) at position 1 of the A chain, linked to a 20 kDA PEG via an oxime linkage
Functional Assay Raw EC50 Values [ng/mL]; cAMP increase in THP-1 cells, 11/5/2010 [1]: 38 ng/mL
cAMP Assay EC50 (nM), inhibition of forskolin-induced cAMP, human RXFP4/CHO-K1 cells [2]: > 3000 nM
Potency Ratio (RLX-A-AQ1-20KPEG/WT-RLX), cAMP assay, rat RXFP1/CHO-K1 cells [3]: 32 fold
RLX-A-AQ1-20KPEG Potency Ratio (hRXFP 1-1.0), cAMP assay [3]: 0.34 ratio
cAMP Assay EC50 (nM), rat RXFP1/CHO-K1 cells [3]: 1.1 nM
